Target: T1, Recombinant human protein C inhibitor (PCI, SERPINA5), P05154
T1 chain: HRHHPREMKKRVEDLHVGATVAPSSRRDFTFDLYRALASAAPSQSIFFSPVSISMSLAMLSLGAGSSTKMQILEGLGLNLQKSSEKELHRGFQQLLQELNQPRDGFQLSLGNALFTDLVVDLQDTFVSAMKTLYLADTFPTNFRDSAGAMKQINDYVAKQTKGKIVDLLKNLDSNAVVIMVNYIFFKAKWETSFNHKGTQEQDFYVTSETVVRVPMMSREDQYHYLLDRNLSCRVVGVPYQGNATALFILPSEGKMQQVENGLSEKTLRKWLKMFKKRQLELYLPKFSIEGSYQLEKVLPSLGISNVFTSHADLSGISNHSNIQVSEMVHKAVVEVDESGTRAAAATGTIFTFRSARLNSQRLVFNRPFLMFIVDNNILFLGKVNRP

B1: Recombinant human matriptase (protein)
chain: GSDEKDCDCGLRSFTRQARVVGGTDADEGEWPWQVSLHALGQGHICGASLISPNWLVSAAHCYIDDRGFRYSDPTQWTAFLGLHDQSQRSAPGVQERRLKRIISHPFFNDFTFDYDIALLELEKPAEYSSMVRPICLPDASHVFPAGKAIWVTGWGHTQYGGTGALILQKGEIRVINQTTCENLLPQQITPRMMCVGFLSGGVDSCQGDSGGPLSSVEADGRIFQAGVVSWGDGCAQRNKPGVYTRLPLFRDWIKENTGV
cleavage of PCI (anti-PCI immunoblot): resulted in the appearance of cleaved forms of PCI
